In patent US20210198347A1 (Chugai, published 2021):
Changes are numbered by the printed parent chain.

T1: Native human C1r enzyme (Comptech A102) (human, UniProt P00736 18-705)
T1 construct: mature
T1 sequence (looked up): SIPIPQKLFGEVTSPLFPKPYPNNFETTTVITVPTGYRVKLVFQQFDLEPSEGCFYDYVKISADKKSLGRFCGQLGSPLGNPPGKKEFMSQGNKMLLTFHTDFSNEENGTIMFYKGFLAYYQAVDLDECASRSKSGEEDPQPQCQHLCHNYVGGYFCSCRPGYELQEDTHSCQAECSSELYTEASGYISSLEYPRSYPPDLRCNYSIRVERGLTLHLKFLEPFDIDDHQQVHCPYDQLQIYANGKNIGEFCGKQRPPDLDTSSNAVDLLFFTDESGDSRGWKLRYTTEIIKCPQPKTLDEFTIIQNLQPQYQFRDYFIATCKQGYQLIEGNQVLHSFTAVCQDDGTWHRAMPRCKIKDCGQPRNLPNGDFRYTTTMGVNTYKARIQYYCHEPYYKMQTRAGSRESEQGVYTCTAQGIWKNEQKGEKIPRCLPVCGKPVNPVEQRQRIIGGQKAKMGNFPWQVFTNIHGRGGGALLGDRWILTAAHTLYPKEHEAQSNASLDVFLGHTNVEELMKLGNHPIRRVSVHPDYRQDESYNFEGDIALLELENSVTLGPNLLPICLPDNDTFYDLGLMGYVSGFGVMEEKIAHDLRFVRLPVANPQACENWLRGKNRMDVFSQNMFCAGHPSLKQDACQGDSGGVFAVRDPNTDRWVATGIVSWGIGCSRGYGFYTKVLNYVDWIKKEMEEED

T2: recombinant human C1r CCP1-CCP2-SP-FLAG (human, UniProt P00736 307-705)
T2 construct: Truncated protein lacking the CUB1-EGF-CUB2 domain of C1r; also called human C1r CCP1-CCP2-SP I307-D705
T2 chain: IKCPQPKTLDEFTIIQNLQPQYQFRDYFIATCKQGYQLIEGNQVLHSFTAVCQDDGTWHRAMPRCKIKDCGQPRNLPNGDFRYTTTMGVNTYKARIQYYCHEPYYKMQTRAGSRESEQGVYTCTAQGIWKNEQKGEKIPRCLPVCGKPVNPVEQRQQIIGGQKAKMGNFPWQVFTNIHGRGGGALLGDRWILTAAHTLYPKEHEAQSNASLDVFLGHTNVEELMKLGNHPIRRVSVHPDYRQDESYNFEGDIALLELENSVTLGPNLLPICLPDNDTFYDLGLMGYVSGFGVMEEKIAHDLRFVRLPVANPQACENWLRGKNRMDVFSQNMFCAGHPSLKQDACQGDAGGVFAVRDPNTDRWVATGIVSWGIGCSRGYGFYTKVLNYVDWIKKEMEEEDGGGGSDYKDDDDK

B1: COR0205gg-SG1148 (antibody, human IgG1, kappa, V domains shown)
VH: QSLEESGGGLFKPTDTLTLTCTVSGFSLSSNAMSWVRQAPGKGLEYIGIIYLTGVTYYATWAKGRFTISKTSTTVDLKITSPTTEDTATYFCAGGEFSLWGPGTLVTVSS
VL: DIIMTQTPASVEAAVGGTVTIKCQASQGIDNYFSWHQQKPGQPPKLLIYKASTLASGVSSRFKGSGSGTEFTLTISDLECDDAATYYCQCTYGYNINDNYGNAFGGGTKVEIKR
notes: Anti-C1r antibody; also called COR205gg(-SG1148)
B2: COR0208cc-SG1148 (antibody, human IgG1, kappa, V domains shown)
VH: QSVEESGGRLVTPGTPLTLTCTVSGFSLSNYYMNWVRQAPGKGLEWIGIIASDDNTWYASWAKGRFTISKTSTTVDLKITSPTTEDTATYFCARDLDVGYGSGWYDLWGQGTLVTVSS
VL: AAVLTQTPSPVSVAVGGTVTINCQASQSVYNNNYLAWYQQEPGHRPKLLIYRASKLASGVPSRFSGSGSGTQFTLTISGVQCDDAATYYCLGGYDDFTDTTFGGGTKVEIKR
notes: Anti-C1r antibody; also called COR208; COR208cc(-SG1148)
B3: COR0212bb-SG1148 (antibody, human IgG1, kappa, V domains shown)
VH: QEQLKESGGGLVTPGGTLTLTCTASGFSLSSYDMSWVRQAPGKGLDWIGIINTGGSAYYATWAKGRFTISKTSTTVDLKITSPTTEDTATYFCGRKINDAFDPWGPGTLVTVSS
VL: AQVLTQTPFSVSAAVGGTVTINCQASESISSNLAWYQQKPGQPPKLLIYDASDLASGVPSRFKGSGSGKQFTLTISGVQCDDAATYFCQHGWIYDTIDSNCFGGGTKVEIKR
notes: Anti-C1r antibody
B4: COR0278bb-SG1148 (antibody, human IgG1, kappa, V domains shown)
VH: QSLEESGGRLVTPGTPLTLTCTASGFSLSSYDMTWVRQAPGKGLEWIGIIYTLGSAYYASWAKGRFTISRTSTTVDLKMTSPTTEDTATYFCARGGDSYGAVDTAFDLWGPGTLVTVSS
VL: AQVLTQTPSPVSAAVGGTVTISCQSSPSVYSNYLSWYQQKPGQPPKLLIYRASRLASGVPSRFKGSGSGTQFTLTISEVQCDDAATYYCQGYFGNGINAFGGGTKVEIKR
notes: Anti-C1r antibody
B5: COR0067ff-SG1148 (antibody, human IgG1, kappa, V domains shown)
VH: QSLEESGGGLVQPEGSLTLTCKASGIDFSSNAMCWVRQAPGKGLEWIGCIYTGSTTIWYASWAKGRFTISKTSSTTVTLQLNSLTVADTATYFCARRDSSSGYAFKLWGPGTLVTVSS
VL: DIVMTQTPSSVSAAVGGTVTIKCQASENIYSNLAWYQQKSGQPPNLLIYGASTLESGVPSRFKGSGSGTEFTLTISDLECADAAIYYCQCTYDDSSTFGGGTKVEIKR
notes: Anti-C1r antibody
B6: COR0338gg-SG1148 (antibody, human IgG1, kappa, V domains shown)
VH: B5 VH with G48A, S61T, D98A
VL: B5 VL with I2V, S9F, N28S, S40P, A81D
notes: Anti-C1r antibody
B7: COR0011bb-SG1148 (antibody, human IgG1, kappa, V domains shown)
VH: QSLEESGGRLVTPGTPLTLTCTASGFTFSGYYMCWVRQTPGKGLEYIGIIASSGNTYYANWAKGRFTISKTSSTTVDLKMTSLTTEDTATYFCAKPESDYVNGMGLWGPGTLVTVSS
VL: DIVMTQTPASVSDPVGGTVTIKCQASQSIYNLLSWYQQKPGQRPKLLIYDASKLASGVPSRFKGSGYGTDFTLTISDLGCADAATYYCQSNYGYSRTDDTFFYGFGGGTKVEIKR
notes: Anti-C1r antibody
B8: COR0058bb-SG1148 (antibody, human IgG1, kappa, V domains shown)
VH: QSVEESGGRLVTPGTPLTLTCTASGFDISNYNMQWVRQSPGKGLEWIGIIWSGGYTDYANWAKGRFTISATSTTVDLKSTSPTTEDTATYFCARQGANFGDYTVDLWGPGTLVTVSS
VL: AYDMTQTPASVEVAVGGTVTIKCQASQSIRSSLAWYQQKPGQRPKLLIYRASTLASGVSSRFKGSGSGTQFTLTISGVECADAATYYCQQGYSNINVDNTFGGGTKVEIKR
notes: Anti-C1r antibody

The binders below were run against T1, Native human C1r enzyme (Comptech A102) (assay: SPR (BIACORE T200, 37 degrees C, pH 7.4), antibody captured by protein A/G, C1r 25 nM as a dimer).
Protocol: The binding specificities of human C1r CUB1-EGF-CUB2 binders are determined at 37 degrees C. using BIACORE® T200 instrument (GE Healthcare). Recombinant Protein A/G (Pierce) is immobilized onto all flow cells of a CM4 sensor chip using an amine coupling kit (GE Healthcare). Antibodies and analytes are prepared in 7(+) buffer (20 mM ACES, 150 mM NaCl, 1.2 mM CaCl₂, 0.05% Tween 20, 1 mg/mL BSA (IgG-free), 1 mg/mL CMD, 0.005% NaN₃, pH 7.4). Each antibody is captured onto the sensor surface by protein A/G. Antibody capture levels are aimed at 100 resonance unit (RU). Native human C1r enzyme (Comptech A102) (at 25 nM as a dimer) or recombinant human C1r CCP1-CCP2-SP-FLAG (at 50 nM as a monomer) is injected, followed by dissociation. Sensor surface is regenerated each cycle with 10 mM Glycine-HCl pH 1.5. It may be determined that C1r CUB1-EGF-CUB2 binders bound to the native human C1r enzyme , but not recombinant human C1r CCP1-CCP2-SP-FLAG, which is a truncated protein lacking the CUB1-EGF-CUB2 domain of C1r.
B1: binds.
B2: binds.
B3: binds.
B4: binds.
B5: binds.
B6: binds.
B7: binds.
B8: binds.

Molecular target: T2, recombinant human C1r CCP1-CCP2-SP-FLAG
Experiment: SPR (BIACORE T200, 37 degrees C, pH 7.4, 1.2 mM CaCl2), antibody captured by protein A/G
B1: no binding (tested: 50 nM).
B2: no binding (tested: 50 nM).
B3: no binding (tested: 50 nM).
B4: no binding (tested: 50 nM).
B5: no binding (tested: 50 nM).
B6: no binding (tested: 50 nM).
B7: no binding (tested: 50 nM).
B8: no binding (tested: 50 nM).
